According to patent US20210388105A1 (ELPISCIENCE SUZHOU BIOPHARMA, published 2021):
Positions count from the first letter of the chain named. Several values for one entry are separate records, joined by “and”; a condition that tells them apart may be missing. Equal entries are not always repeated. Each block holds one binder with its values, some of them ahead of it.

Experiments:
[1] = target: T1, human CD39 (full length, on cells) (human, UniProt P49961 1-510); test: cell-based or functional assay
T1 sequence: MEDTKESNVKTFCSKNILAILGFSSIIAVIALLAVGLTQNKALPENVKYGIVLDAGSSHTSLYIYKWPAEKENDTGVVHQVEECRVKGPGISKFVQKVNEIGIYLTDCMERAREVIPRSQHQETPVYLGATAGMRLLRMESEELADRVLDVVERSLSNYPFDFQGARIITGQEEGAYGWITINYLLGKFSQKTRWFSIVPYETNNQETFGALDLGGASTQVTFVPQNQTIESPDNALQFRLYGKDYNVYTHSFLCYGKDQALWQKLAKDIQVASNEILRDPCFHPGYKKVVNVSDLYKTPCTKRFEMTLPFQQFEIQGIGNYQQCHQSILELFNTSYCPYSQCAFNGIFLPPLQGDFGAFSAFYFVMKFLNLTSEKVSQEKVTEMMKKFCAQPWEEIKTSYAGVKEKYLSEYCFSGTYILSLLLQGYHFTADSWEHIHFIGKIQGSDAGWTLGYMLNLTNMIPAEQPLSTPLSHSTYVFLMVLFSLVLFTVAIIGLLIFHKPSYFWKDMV

[2] = target: T1, human CD39 (full length, on cells); test: FACS competition on CHOK1-hCD39; competitor 9-8B-Alexa488
Experimental: (§1) Anti-CD39 antibodies were labeled using Alex488 labeling kit and were diluted in a series of concentrations, before mixing with CHOK1-hCD39 cells to test binding EC₅₀using FACS. The non-labeled antibodies were tested for their blocking efficacy to the labelled ones. Briefly, mononuclear CHOK1-hCD39 cells were prepared to 2×10⁶/ml and plated into 96 well at 50 μl/well, then mixed with antibodies gradients to final volume at 100 μl, and then equal volume of Alex488 label antibodies were added at two folds EC80 concentration. 96 well plates were incubated at 4° C. for 1 hour, and spun down and washed 3 times with 200 μl FACS buffer. The FACS analysis was performed on FACScelesta machine and data was analyzed by Flowjo software. The blocking percentages were calculated and those having above 80% competition rate were allocated into one epitope group, compared with the non-competing well (Alex488 labeled antibody only).
(§2) Based on the competition results, the 4 anti-CD39 hybridoma antibodies (mAb14, mAb19, mAb21, mAb23) can be grouped into 4 different epitope groups, as shown in Table 11.

[3] = target: T1, human CD39 (full length, on cells); test: FACS competition on CHOK1-hCD39; competitor mAb19-Alexa488
Experimental: as §1, §2

[4] = target: T1, human CD39 (full length, on cells); test: FACS competition on CHOK1-hCD39; competitor mAb23-Alexa488
Experimental: as §1, §2

[5] = target: T1, human CD39 (full length, on cells); test: FACS competition on CHOK1-hCD39; competitor mAb21-Alexa488
Experimental: as §1, §2

[6] = target: T2, cynomolgus CD39 (full length, on CHOK1-cynoCD39 cells) (cynomolgus monkey, UniProt A0A7N9DGH8 1-510); test: FACS, CHOK1-cynoCD39 cells
T2 construct: whole, on cells; also called cCD39
T2 sequence: T1 sequence with V47I, F94Y, V221I, I230T, I329V, K368N, A391S, F489V, T490I
From the text: (§3) FACS were used to determine binding of the antibodies to cell lines expressing CD39 naturally (SK-MEL-28) or recombinantly (CHOK1-hCD39, CHOK1-cynoCD39, and CHOK1-mCD39), or with cells lacking CD39 expression (CHOK1-blank) as a negative control.
(§4) CHOK1-hCD39, CHOK1-cCD39, CHOK1-mCD39 and CHOK1-blank cells were maintained in culture medium according to ATCC procedure. Cells were collected and re-suspended in blocking buffer at a density of 3×10⁶ cells/ml. Cells were transferred to 96 well FACS plates at 100 μl/well (3×10⁵ cells/well), the plates were centrifuged and washed twice with FACS buffer (PBS, 1% FBS, 0.05% Tween-20). 4-folds serial dilution of anti-CD39 antibodies were prepared in FACS buffer starting from 30 μg/ml. Reference antibody 9-8B and mouse/human control IgG were used as positive and negative controls, respectively. Cells were re-suspended in 100 μL/well diluted antibodies, and the plates were incubated at 4° C. for 60 min. […] The plates were washed with FACS buffer, and cells were re-suspended in 100 μL/well of PBS. Cells were then analyzed with FACSVerse™ and mean fluorescence intensity were determined. Full binding curves were generated on the CD39 expressing cells by testing a range of antibody concentrations. Apparent affinity was determined for each antibody using Prism software.

[7] = target: T1, human CD39 (full length, on cells); test: FACS competition on CHOK1-hCD39; competitor mAb14-Alexa488
Experimental: as §1, §2

[8] = target: T1, human CD39 (full length, on cells); test: FACS, CHOK1-hCD39 cells
From the text: as §3, §4

[9] = target: T1, human CD39 (full length, on cells); test: FACS, SK-MEL-28 cells
Experimental: as §3
(§5) Similarly, human CD39 expressing cells SK-MEL-5, SK-MEL-28 or MOLP-8, were incubated with a gradient concentration of anti-CD39 antibodies for 30 minutes at 4° C. Cells were washed 3 times using FACS buffer and next incubated with fluorescence labelled secondary antibody (goat-anti-mouse IgG or goat anti-human IgG) for 30 minutes at 4° C. Cells were washed 3 times and then re-suspended in FACS buffer and analyzed by flow cytometry analysis on BD Celesta. Data plotted and analyzed using GraphPad Prism 8.02.

[10] = target: T3, mouse CD39 (full length, on CHOK1-mCD39 cells) (mouse, UniProt P55772 1-510); test: FACS, CHOK1-mCD39 cells
T3 construct: whole, on cells
T3 sequence (looked up): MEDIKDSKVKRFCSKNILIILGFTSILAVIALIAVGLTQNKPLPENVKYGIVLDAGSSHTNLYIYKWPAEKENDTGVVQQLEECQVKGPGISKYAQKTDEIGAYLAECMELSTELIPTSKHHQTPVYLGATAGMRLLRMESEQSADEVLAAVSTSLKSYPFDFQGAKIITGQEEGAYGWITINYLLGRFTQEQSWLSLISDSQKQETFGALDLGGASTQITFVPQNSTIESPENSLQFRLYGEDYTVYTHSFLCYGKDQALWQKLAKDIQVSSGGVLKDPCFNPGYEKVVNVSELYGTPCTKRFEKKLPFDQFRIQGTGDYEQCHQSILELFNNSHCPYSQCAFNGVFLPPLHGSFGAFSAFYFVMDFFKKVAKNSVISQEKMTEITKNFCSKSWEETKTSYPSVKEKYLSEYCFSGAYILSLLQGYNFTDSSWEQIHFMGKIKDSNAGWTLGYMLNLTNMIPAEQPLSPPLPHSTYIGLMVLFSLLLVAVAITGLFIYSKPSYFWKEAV
From the text: as §3, §4

[11] = target: T1, human CD39 (full length, on cells); test: FACS, MOLP-8 cells
Experimental: as §5
(§6) The binding affinity of the humanized antibodies for c23 was determined by FACS, using similar methods as described in Example 3.2. The c23 humanized antibody clones showing good binding affinity are listed in below Table 19 and Table 20, and also shown in FIGS. 7A, 7B and FIG. 8. EC₅₀ is the concentration of the indicated antibodies to reach 50% of the signal in this assay.

[12] = target: T1, human CD39 (full length, on cells); test: FACS, MOLP-8 cells; remark: listed apart in the source
Experimental: as §5, §6

[13] = target: T1, human CD39 (full length, on cells); test: cell-based or functional assay; remark: listed apart in the source
6×His tagged human CD39 = target: T4, 6×His tagged human CD39 (human, UniProt P49961 38-478); test: Biacore SPR, antibody captured on CM5 chip, His-tagged CD39 as analyte
T4 construct: Analyte in the Biacore assay
T4 sequence: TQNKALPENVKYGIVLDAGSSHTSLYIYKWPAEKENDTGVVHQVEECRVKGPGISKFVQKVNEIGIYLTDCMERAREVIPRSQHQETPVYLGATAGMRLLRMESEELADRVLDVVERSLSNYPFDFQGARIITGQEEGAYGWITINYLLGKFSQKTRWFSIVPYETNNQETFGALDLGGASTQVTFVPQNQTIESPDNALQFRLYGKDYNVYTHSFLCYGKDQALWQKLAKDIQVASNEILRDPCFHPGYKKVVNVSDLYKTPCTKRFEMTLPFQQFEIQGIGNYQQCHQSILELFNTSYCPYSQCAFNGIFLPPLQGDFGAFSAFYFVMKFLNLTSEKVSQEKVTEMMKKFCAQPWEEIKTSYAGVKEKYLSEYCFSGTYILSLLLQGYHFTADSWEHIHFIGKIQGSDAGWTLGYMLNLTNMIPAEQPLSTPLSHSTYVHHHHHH
Experimental: In particular, humanized antibodies hu23.H5L5, hu23.201, hu14.H1L1 and reference antibodies 1394 and T895 were characterized for binding affinity against human CD39 using Biacore (GE). Briefly the antibodies to be tested were captured to CM5 chip (GE) using Human Antibody Capture Kit (GE). The antigen of 6×His tagged human CD39 was serially diluted for multiple doses and injected at 30 μl/min for 180s. Buffer flow was maintained for dissociation of 400s. 3 M MgCl2 was used for chip regeneration. The association and dissociation curves were fit with 1:1 binding model, and the Ka/Kd/KD values for each antibody were calculated.

B2: c23 (antibody, V domains shown)
VH: EVQLQQSGAELLRPGASVKLSCTASGYNLKDTFLHWVKQRPEQGLEWIGRIDPANGNIKYDPKFQGKATLTADTSSNTAYLQLISLTSEDTAVYYCANSPYYYGSGYRIFDVWGAGTTVTVSS
VL: QIVLTQSPAIMSASPGEKVTITCSAFSSVNYMHWYQQKPGTSPKLLIYTTSNLASGVPTRFSGSGSGTSYSLTISRMEAEDAATYYCQQRSTYPFTFGSGTKLEIQ
notes: variable regions of mAb23 on human IgG constant regions; also called chimeric antibody c23
EC50 [11]: 1.03 nM and 0.397 nM
EC50 [12]: 1.28 nM
ATPase inhibition IC50 on SK-MEL-28 cells [13]: 0.158 nM and 0.209 nM

B3: hu23.203 (antibody, V domains shown)
VH: QVQLVQSGAEVKKPGASVKVSCKASGYTLKDTFLHWVRQAPGQRLEWMGRIDPANGNIKYDPKFQGRVTLTADTSSNTAYMELSSLRSEDTAVYYCANSPYYYGSGYRIFDVWGQGTLVTVSS
VL: EIVLTQSPATLTLSPGERATLSCSAFSSVNYMHWYQQKPGQAPRLLIYTTSNLASGIPARFSGSGSGTDYTLTISSLEPEDFAVYYCQQRSTYPFTFGQGTKLEIK
notes: humanized c23 by yeast display
EC50 [12]: 0.429 nM
ATPase inhibition IC50 on SK-MEL-28 cells [13]: 0.32 nM

B4: hu23.201 (antibody, V domains shown)
VH: B3 VH
VL: B3 VL with T12S, A42S
notes: as for B3
Kd (6×His tagged human CD39): 24 nM
koff (6×His tagged human CD39): 0.00162 s⁻¹
kon (6×His tagged human CD39): 67500 M⁻¹ s⁻¹
EC50 [12]: 1.29 nM
ATPase inhibition IC50 on SK-MEL-28 cells [13]: 0.264 nM

Further lines, with some results ahead:

SK-MEL-28 cell based ATPase inhibition % at 10 nM [1]: 65%
blocking percentage [2]: 6%
blocking percentage [3]: 96%
blocking percentage [4]: 91%
blocking percentage [5]: 83%
EC50 [6]: 5.8 nM
blocking percentage [7]: 23%
EC50 [8]: 4.5 nM
EC50 [9]: 46 nM
B1: mAb19 (antibody, V domains shown)
VH: EVKLEKSGGGLVQPGGSMKLSCVASGFTFSNYWMNWVRQSPEKGLEWVAQIRLNPDNYATHYAESVKGRFTISRDDYKNSVYLQMSSLRAEDSGIYYCTQHGSRGFAYWGQGTLVTVS
VL: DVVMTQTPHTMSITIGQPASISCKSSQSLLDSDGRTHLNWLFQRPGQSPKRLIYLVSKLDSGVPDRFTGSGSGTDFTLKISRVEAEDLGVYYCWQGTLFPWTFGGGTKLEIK
notes: mouse hybridoma antibody
binding result [10]: no binding (tested: 30 µg/ml highest concentration)

EC50 [12]: 2.25 nM
B5: hu23.207 (antibody, V domains shown)
VH: B3 VH with Q1E, R50K
VL: B3 VL with T12S, A42S
notes: as for B3

EC50 [12]: 1.56 nM
ATPase inhibition IC50 on SK-MEL-28 cells [13]: 0.386 nM
B6: hu23.211 (antibody, V domains shown)
VH: B3 VH with Q1E, L70I
VL: B3 VL with T12S
notes: as for B3
